Where two headings read alike, the source gives them in different places.
T1: MERS spike protein (MERS-CoV, UniProt K9N5Q8 18-1296)
T1 chain: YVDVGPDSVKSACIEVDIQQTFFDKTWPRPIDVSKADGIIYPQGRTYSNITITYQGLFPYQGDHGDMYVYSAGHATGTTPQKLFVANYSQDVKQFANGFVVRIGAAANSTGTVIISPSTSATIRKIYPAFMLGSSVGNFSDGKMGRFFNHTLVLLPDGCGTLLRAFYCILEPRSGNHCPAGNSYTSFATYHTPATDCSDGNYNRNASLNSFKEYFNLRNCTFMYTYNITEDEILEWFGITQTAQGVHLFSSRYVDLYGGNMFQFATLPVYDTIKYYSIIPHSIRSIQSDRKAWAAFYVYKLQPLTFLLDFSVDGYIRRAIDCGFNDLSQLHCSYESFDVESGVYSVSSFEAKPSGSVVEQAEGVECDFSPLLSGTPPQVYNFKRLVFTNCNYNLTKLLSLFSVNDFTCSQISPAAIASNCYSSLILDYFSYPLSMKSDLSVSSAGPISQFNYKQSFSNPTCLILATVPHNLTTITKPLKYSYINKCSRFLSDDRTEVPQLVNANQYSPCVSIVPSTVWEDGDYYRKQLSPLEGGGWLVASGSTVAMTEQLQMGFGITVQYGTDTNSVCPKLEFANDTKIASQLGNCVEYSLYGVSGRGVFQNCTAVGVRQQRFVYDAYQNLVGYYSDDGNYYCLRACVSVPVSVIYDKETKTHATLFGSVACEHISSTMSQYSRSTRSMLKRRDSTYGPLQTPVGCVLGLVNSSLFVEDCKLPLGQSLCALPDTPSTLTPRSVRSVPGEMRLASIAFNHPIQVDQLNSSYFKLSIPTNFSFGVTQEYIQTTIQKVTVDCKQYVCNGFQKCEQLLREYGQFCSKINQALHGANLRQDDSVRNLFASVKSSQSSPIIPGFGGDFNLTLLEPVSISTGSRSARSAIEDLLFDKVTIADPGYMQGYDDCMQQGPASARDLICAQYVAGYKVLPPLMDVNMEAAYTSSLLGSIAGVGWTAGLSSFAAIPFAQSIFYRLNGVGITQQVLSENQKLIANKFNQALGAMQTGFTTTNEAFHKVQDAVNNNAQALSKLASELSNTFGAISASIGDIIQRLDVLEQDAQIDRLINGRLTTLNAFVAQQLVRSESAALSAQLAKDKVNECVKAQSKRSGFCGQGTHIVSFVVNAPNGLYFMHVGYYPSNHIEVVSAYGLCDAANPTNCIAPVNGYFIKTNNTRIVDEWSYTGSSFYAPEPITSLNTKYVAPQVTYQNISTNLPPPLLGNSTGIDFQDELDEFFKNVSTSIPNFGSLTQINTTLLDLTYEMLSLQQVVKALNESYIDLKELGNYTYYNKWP


Key:
Test in all cases: ELISA
[1] = target: T2, SARS-CoV-2 prefusion stabilized trimer protein (WIV02 isolate spike protein) (UniProt P0DTC2 14-1213)
[2] = target: T2, SARS-CoV-2 prefusion stabilized trimer …; remark: listed apart in the source
SARS-CoV-1 spike protein = SARS-CoV-1 spike protein (SARS-CoV-1, UniProt P59594 14-1195)
SARS-CoV-2 S2 domain = SARS-CoV-2 S2 domain (UniProt P0DTC2 686-1213)
MERS spike protein = target: T1, MERS spike protein
[3] = target: SARS-CoV-2 receptor binding domain (UniProt P0DTC2 319-541)

Binder | EC50 [1] | EC50 [2] | EC50 (SARS-CoV-1 spike protein) | EC50 (SARS-CoV-2 S2 domain) | EC50 (MERS spike protein) | EC50 [3]
3-E13-A (antibody, V domains shown) VH: EVQLQQSGPELVKPGASVKMSCKASGYTFTDYNIHWVKQSHGKSLEWIGYINPNNGGTDYNQKFQGKATLTVNKSSSTAYMELRSLTSEDFAVYYCARGGFYGNYGAYYGMDFWGQGTSVTVSS VL: DIQMTQSPASLSASVGETVTITCRTSENIYSHLAWYQQTQGKSPQLLVYNAKTLAEGVPSRFSGSGSGTHFSLKINSLQPEDFGSYYCQHHYGIPPEFGGGTKLEIK | 0.08 nM | 0.08 nM | 0.16 nM | 0.05 nM | – | –
2-J9-A (antibody, V domains shown) VH: EVQLQQSGPELVKPGASVKMSCKASGYTFTDYNIHWVKQSHGKSLEWIGYINPNNGGTDYNQKFQGKATLTVNKSSSTAYMELRSLTSEDSAVYYCARGGFYGNYGAYYGMDFWGQGTSVTVSS VL: DIQMTQSPASLSASVGETVTITCRTSENIYSHLAWYQQTQGKSPQLLVYNTKTLAEGVPSRFTGSGSGTQFSLKINSLQPEDFGSYYCQHHYGIPPEFGGGTKLEIK | 0.11 nM | 0.08 nM | 0.17 nM | 0.05 nM | 1.83 nM | –
6-C19-A (antibody, V domains shown) VH: EVQLQQSGPELVKPGASVKMSCKASGYTFTDYNIHWVKQSHGKSLEWIGYINPNNGGTDYNQKFQGKATLTVDKSSSTAYMELRSLTSEDSAVYYCARGGFYGNYGSYYGMDFWGQGTSVTVSS VL: DIQMTQSPASLSASVGETVTITCRTSENIYSHLAWYQQTQGKSPHLLVYNAKTLAEGVPSRFSGSGSGTQFSLKINSLQPEDFGSYFCQHHYGIPPEFGGGTKLEIK | 0.48 nM | 0.49 nM | 1.98 nM | 0.39 nM | – | –
6-L8-A (antibody, V domains shown) VH: EVQLQQSVAELVRPGASVKLSCTPSGFNIKNTYMHWMKQRPEQGLEWIGRINPANDDTKYAPKFQDKATITADTSSNTAYLQLSSLTSEDTAIYYCVYDVRWYFDVWGTGTTVTVSS VL: DVVMTQTPLSLPVSLGDQASISCRSSQGLVHSNGNTYLHWYLQKPGQSPKLLIYKVSNRFSGVPDRFSGSGSGTDFTLKISRVEAEDLGVYFCSQSTHVPPTFGAGTKLELK | 6.8 nM | 7.46 nM | 43.5 nM | – | – | –
9-L13-A (antibody, V domains shown) VH: QVQLKESGPGLVAPSQSLSITCTVSGFSLTSYAISWVRQPPGKGLEWLGLIWTGGGTNYNSALKSRLSISKDNSKSQIFLKMNSLQTDDTARYYCARGPPLIYYGDLYYFDYWGQGTTLTVSS VL: DIQMTQSPSSLSASLGGKVTITCKASQDINKYIAWYQHKPGKGPRLLIHYTSTLQPGIPSRFSGSGSGRDYSFSISNLEPEDIATYYCLQYDNLWTFGGGTKLEIK | 8.18 nM | 8.45 nM | 6.31 nM | – | – | 26.9 nM
4-K13-A (antibody, V domains shown) VH: QAYLQQSGAELVRPGASVKMSCKASGYTFTSYTVHWVKQTPRQGLEWIGAIYPGNVDTSYNQNFKGKATLTVDKSSSTAYMQLSSLTSEDSAVYFCARDGYYAMDYWGQGTSVTVSS VL: not shown | – | 0.14 nM | – | 87 nM | – | 0.15 nM
4-C3-A (antibody, V domains shown) VH: EVQLQQSGPELVKPGASVKISCKASGYSFTGYYMHWVKQSHGNILDWIGYIYPYNGVSSYNQKFKGKATLTVDKSSSTAYMELRSLTSEASAVYYCARAYGSSYDYYYGLDYWGQGTSVTVSS VL: DIVLTQSPASLAVSLGQRATISCKASQSVDYDGAGYMNWYQQKPGQPPKLLISSASNLQSGIPARFSGSGSGTDFTLNIHPVEEEDAATYYCQQSNDDPYTFGGGTKLEIK | 0.08 nM | 0.54 nM | – | 81.1 nM | – | –
2-P2-A (antibody, V domains shown) VH: EVQLQQSGAELVRPGSSVKMSCKTSGYTFTSYGINWVKQRPGQGLEWIGYIYIGNGYTEYNEKFKGKATLTSDTSSSTAYMQLSSLTSEDSAIYFCARGGVDYWGQGTTLTVSS VL: DVLMTQTPLSLPVSLGDQASISCRSSQSIVHSNGNTYLEWYLQKPGQSPKLLIYKVSNRFSGVPDRFSGSGSGTDFTLKISRVEAEDLGVYYCFQGSHVPYTFGGGTKLEIK | 0.12 nM | 0.13 nM | 0.19 nM | 0.07 nM | – | 89.5 nM
9-P9-A (antibody, V domains shown) VH: DVKLVESGEGLVKPGGSLKLSCAASGFSFSNFGMSWVRQTPEKRLEWVAYISSGGDYIYYADTVKGRFTISRDNARNTLYLQMSSLKSEDTAIYYCTRGYFDYWGQGTTLTVSS VL: DVLMTQTPLSLPVSLGDQASISCRSSQSIVHSNGNTYLEWYLQKPGQSPKLLIYTVSNRFSGVPDRFSGSGSGTDFTLKISRVEAEDLGVYYCFQGSHVPYTFGGGTKLEMR | 0.05 nM | 0.05 nM | 0.06 nM | 0.04 nM | – | –
8-N24-A (antibody, V domains shown) VH: QVQLQQPGAELVKPGASVKVSCKASGYTFTSYWMHWVKQRPGQGLEWIGRIHPSDSDTNYYQKFKGKATLSVDKSSSTAYMQLSSLTSEDSAVYYCAIPLYSYDNSGGYYPMDYWGQGTSVTVSS VL: DIVMTQSQKFMSTSVGDRVTITCKASQNVRTAVAWYQQKPGQSPKKLIYLASNRHTGVPDRFTGSGSGTDFTLAISNVQSEDLADYFCLQHWNYPFTFGSGTRLEIK | – | – | 59 nM | 4.43 nM | – | –

Reference: patent US20240239875A1 (published 2024)
